The text below walks through data of PMC13035853, “Mechanism of beta-arrestin 1 mediated Src activation via Src SH3 domain revealed by cryo-electron microscopy” (Nature Communications, 2026).

For this experiment, the target named is SH3 domain of Src (residues 83-141), wild type, with C-terminal FLAG-tag (chicken, UniProt P00523 83-141). The experiment in a line: bimane fluorescence; as a10, for the pair of SH3 (250 nM) and βarr1 V70C-mBr (20 nM), both purified; read-out is the loss of the V2R-induced rise of bimane fluorescence. To be noted: both partners purified.

B1: βarr1-MC-393 V70C labeled with monobromobimane (natural protein, rat, UniProt P29066 1-393, looked up)
chain: MGDKGTRVFKKASPNGKLTVYLGKRDFVDHIDLVDPVDGVVLVDPEYLKERRVYVTLTAAFRYGREDLDCLGLTFRKDLFVANVQSFPPAPEDKKPLTRLQERLIKKLGEHAYPFTFEIPPNLPSSVTLQPGPEDTGKAIGVDYEVKAFVAENLEEKIHKRNSVRLVIRKVQYAPERPGPQPTAETTRQFLMSDKPLHLEASLDKEIYYHGEPISVNVHVTNNTNKTVKKIKISVRQYADIVLFNTAQYKVPVAMEEADDTVAPSSTFSKVYTLTPFLANNREKRGLALDGKLKHEDTNLASSTLLREGANREILGIIVSYKVKVKLVVSRGGLLGDLASSDVAVELPFTLMHPKPKEEPPHREVPESETPVDTNLIELDTNDDDIVFEDFAR
modifications: bimane (mBr) on C70 of the finger loop
notes: beta-arrestin 1, rat, minimal cysteine and truncated variant (MC-393) with V70C; also called βarr1 V70C-mBr; βarr1 finger loop bimane; source: E. coli BL21 derivative, purified; labeled with monobromobimane, free label removed by SEC
Regarding B1, the binding result is “binds”.
